According to patent US12329823B2 (The Scripps Research Institute, priority 2021, dated 2025):
Values joined by “and” are separate entries in the source; they are usually repeats but may differ in a detail not shown here. Identical values can stand only once. Like-named read-outs stand apart in the source and are kept apart here. Numbered stars: 1 amine (or outer) side, 2 acyl side, 3 side chain; on linkers, the order of the positions; unused ones are H or OH. Bridge positions count the residues as written; N and C are the ends. Square brackets hold non-standard residues; d marks the D form. Peptide text beside a SMILES is read from it. X2 = O=C(O)CCCCCCCCCCCCCCCCCCC(=O)N[C@@H](CCCCNC(=O)CCOCCOCCNC(=O)CCOCCOCCNC(=O)CCC(=O)N(CCNC(=O)C[*:1])CCNC(=O)C[*:2])C(=O)O; Aib = CC(C)(N)C(=O)O

How the values were obtained:
human GIPR = target: T1, human GIPR (Homo sapiens, UniProt P48546); assay: In vitro receptor activation reporter assay (CRE-Luc, HEK293-GIPR-CRE cells; receptor-mediated cAMP synthesis); type: cell-based; conditions: unnumbered table
T1 construct: expressed in transfected cells; host or cells: HEK293 (CRE-HEK293, HEK293-GIPR-CRE)
T1 sequence (P48546 22-466): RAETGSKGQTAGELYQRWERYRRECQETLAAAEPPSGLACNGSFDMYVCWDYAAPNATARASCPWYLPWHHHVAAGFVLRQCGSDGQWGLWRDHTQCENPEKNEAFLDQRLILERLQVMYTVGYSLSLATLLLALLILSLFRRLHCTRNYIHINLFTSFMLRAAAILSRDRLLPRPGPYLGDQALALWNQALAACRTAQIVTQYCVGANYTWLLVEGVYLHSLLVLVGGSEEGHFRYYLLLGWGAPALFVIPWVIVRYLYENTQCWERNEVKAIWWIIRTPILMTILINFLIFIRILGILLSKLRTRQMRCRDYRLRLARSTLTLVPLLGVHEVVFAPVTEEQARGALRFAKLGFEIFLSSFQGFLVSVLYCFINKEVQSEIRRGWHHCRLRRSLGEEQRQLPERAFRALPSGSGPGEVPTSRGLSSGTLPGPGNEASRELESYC
Procedure: HEK293 cells were infected with lentivirus encoding firefly luciferase gene under the control of cAMP responsive element (CRE) promoter (Qiagen, The Netherlands) and then were selected using 1 μg mL^−1 puromycin (Life Technologies, Carlsbad) for 1 week. The surviving cells (referred to as CRE-HEK293) were expanded and then transfected with a G418 selective mammalian expression plasmid encoding human GLP-1R or GIPR. In brief, GLP-1R or GIPR plasmid was transfected into CRE-HEK293 cells using Lipofectamine 2000 and selected with 400 μg mL^−1 Geneticin (Life Technologies, Carlsbad, CA). Single colony stable cell line overexpressing CRE-luciferase and GLP-1R or GIPR (HEK293-GLP-1R-CRE or HEK293-GIPR-CRE) was then established for in vitro activity assay.
The EC50 of each peptide was determined using GraphPad Prism 6 software (GraphPad, San Diego, CA).

[1] = Pharmacokinetics in CD-1 mouse, I.V. or S.C. 1 mg/kg, plasma concentration by LC-MS; conditions: individual animals; for AUC(0-inf): AUCINF_pred; for MRT inf / MRT last: mouse, in vivo; for MRT inf: MRTINF_pred; for MRT last: MRTlast;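 as to all read-outs here: peptide levels in plasma quantified by LC-MS across multiple sampling times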
Procedure: The peptide plasma concentration at various time points was determined using LC-MS.

[2] = average of runs, read-out: EC50 GIPR average
[3] = Table 15, I.V. 1 mg/kg, 1 mg/kg
[4] = iv, 1 mg/kg, Table 15, I.V. 1 mg/kg

In the case of `CC[C@H](C)[C@H](NC(=O)[C@H](CC(C)C)NC(=O)[C@H](Cc1c[nH]c2ccccc12)NC(=O)[C@H](CC(N)=O)NC(=O)[C@@H](NC(=O)[C@H](Cc1ccccc1)NC(=O)[C@@H]1CSCC(=O)NCCN(C(=O)CCC(=O)NCCOCCOCCC(=O)NCCOCCOCCC(=O)NCCCC[C@H](NC(=O)CCCCCCCCCCCCCCCCCCC(=O)O)C(=O)O)CCNC(=O)CSC[C@H](NC(=O)[C@H](Cc2ccc(O)cc2)NC(=O)[C@@H](NC(=O)[C@H](CO)NC(=O)[C@H](Cc2ccc(O)cc2)NC(=O)[C@H](CC(=O)O)NC(=O)[C@H](CO)NC(=O)[C@@H](NC(=O)[C@H](Cc2ccc(O)cc2)NC(=O)[C@@H](NC(=O)CNC(=O)[C@H](CCC(=O)O)NC(=O)C(C)(C)NC(=O)[C@@H](N)Cc2ccc(O)cc2)[C@@H](C)O)[C@@H](C)O)[C@@H](C)CC)C(=O)N[C@@H](CC(=O)O)C(=O)N[C@@H](CCCCN)C(=O)N[C@@H](CCC(N)=O)C(=O)N[C@@H](C)C(=O)N[C@@H](C)C(=O)NC(C)(C)C(=O)N1)C(C)C)C(=O)N[C@@H](C)C(=O)NCC(=O)NCC(=O)N1CCC[C@H]1C(=O)N[C@@H](CO)C(=O)N[C@@H](CO)C(=O)NCC(=O)N[C@@H](C)C(=O)N1CCC[C@H]1C(=O)N1CCC[C@H]1C(=O)N1CCC[C@H]1C(=O)N[C@@H](CO)C(N)=O` [6Y, 27I, C(14-21)-C20L5A, YAibEGT-YTSDY-SIYXD-KQAAAib-XFVNW-LIAGG-PSSGA-PPPS-NH2 (where each X is C) (SEQ ID NO: 58)] (H-Y[Aib]EGTYTSDYSIYCDKQAA[Aib]CFVNWLIAGGPSSGAPPPS-NH2; linker 14-21 via X2), the EC50 (human GIPR; [2]) is reported as 0.56 nM and the EC50 (human GIPR; run 03/26, read-out: EC50 GIPR 03/26) is reported as 0.6 nM.

`CC[C@H](C)[C@H](NC(=O)[C@H](CC(C)C)NC(=O)[C@H](Cc1c[nH]c2ccccc12)NC(=O)[C@H](CC(N)=O)NC(=O)[C@@H](NC(=O)[C@H](Cc1ccccc1)NC(=O)[C@@H]1CSCC(=O)NCCN(C(=O)CCC(=O)NCCOCCOCCC(=O)NCCOCCOCCC(=O)NCCCC[C@H](NC(=O)CCCCCCCCCCCCCCCCC(=O)O)C(=O)O)CCNC(=O)CSC[C@H](NC(=O)[C@H](Cc2ccc(O)cc2)NC(=O)[C@@H](NC(=O)[C@H](CO)NC(=O)[C@H](Cc2ccc(O)cc2)NC(=O)[C@H](CC(=O)O)NC(=O)[C@H](CO)NC(=O)[C@@H](NC(=O)[C@H](Cc2ccccc2)NC(=O)[C@@H](NC(=O)CNC(=O)[C@H](CCC(=O)O)NC(=O)C(C)(C)NC(=O)[C@@H](N)Cc2ccc(O)cc2)[C@@H](C)O)[C@@H](C)O)[C@@H](C)CC)C(=O)N[C@@H](CC(=O)O)C(=O)N[C@@H](CCCCN)C(=O)N[C@@H](CCC(N)=O)C(=O)N[C@@H](C)C(=O)N[C@@H](C)C(=O)NC(C)(C)C(=O)N1)C(C)C)C(=O)N[C@@H](C)C(=O)NCC(=O)NCC(=O)N1CCC[C@H]1C(=O)N[C@@H](CO)C(=O)N[C@@H](CO)C(=O)NCC(=O)N[C@@H](C)C(=O)N1CCC[C@H]1C(=O)N1CCC[C@H]1C(=O)N1CCC[C@H]1C(=O)N[C@@H](CO)C(N)=O` [mCMZ370, YAibEGT-FTSDY-SIYXD-KQAAAib-XFVNW-LIAGG-PSSGA-PPPS-NH2 (where each X is C) (SEQ ID NO: 52)] gave an AUC ([1]; CD-1, mouse, plasma, iv, 1 mg/kg, AUC0_24, Table 15, I.V. 1 mg/kg) of 121 µg·h/mL, an AUC(0-t) ([1]; CD-1, mouse, plasma, iv, 1 mg/kg, AUC last, Table 15, I.V. 1 mg/kg) of 148 µg·h/mL and an AUC(0-inf) ([1]; CD-1, mouse, plasma, iv, 1 mg/kg, Table 15, I.V. 1 mg/kg) of 149 µg·h/mL. It also gave a C0 ([1]; CD-1, mouse, plasma, iv, 1 mg/kg, C0, Table 15, I.V. 1 mg/kg) of 15.2 µg/mL, a Cmax ([1]; CD-1, mouse, plasma, iv, 1 mg/kg, Cmax, Table 15, I.V. 1 mg/kg) of 14.6 µg/mL and a Tmax ([1]; CD-1, mouse, plasma, iv, 1 mg/kg, Tmax, Table 15, I.V. 1 mg/kg) of 0.08 h. For the same compound, the Vd ([1]; CD-1, mouse, plasma, iv, 1 mg/kg, Vss_pred, Table 15, I.V. 1 mg/kg) was 0.098 L/kg, the Vd ([1]; CD-1, mouse, plasma, iv, 1 mg/kg, Vz_pred, Table 15, I.V. 1 mg/kg) was 0.085 L/kg and the half-life ([1]; CD-1, mouse, plasma, iv, 1 mg/kg, t1/2, Table 15, I.V. 1 mg/kg) was 8.82 h. It also gave an AUC ([1]; CD-1, mouse, plasma, sc, 1 mg/kg, AUC0_24, CD-1 mouse, S.C.) of 41.9 µg·h/mL, an AUC(0-inf) ([1]; CD-1, mouse, plasma, sc, 1 mg/kg, S.C.) of 53.5 µg·h/mL and an AUC ([1]; CD-1, mouse, plasma, sc, 1 mg/kg, AUCall, S.C.) of 53.3 µg·h/mL. It also gave a CL/F ([1]; CD-1, mouse, plasma, sc, 1 mg/kg, Cl_Fpred, S.C.) of 0.0144 L/h/kg, a Cmax ([1]; CD-1, mouse, plasma, sc, 1 mg/kg, Cmax, S.C.) of 2.46 µg/mL and a half-life ([1]; CD-1, mouse, plasma, sc, 1 mg/kg, t1/2, CD-1 mouse, S.C.) of 7.5 h. For the same compound, the AUC0_24 ([1]; CD-1 mouse, S.C., 1 mg/kg) was 44.691 µg·h/mL and 63.474 µg·h/mL, the AUCINF_pred ([1]; CD-1 mouse, S.C., 1 mg/kg) was 68.24 µg·h/mL and 80.676 µg·h/mL and the “AUC_% Extrap_pred” value ([1]; CD-1 mouse, S.C., 1 mg/kg) was 0.26% and 0.31% and 0.19%. For the same compound, the AUCall ([1]; CD-1 mouse, S.C., 1 mg/kg) was 68.029 µg·h/mL and 80.522 µg·h/mL, the “AUMC_% Extrap_pred” value ([1]; CD-1 mouse, S.C., 1 mg/kg) was 1.32% and 1.23% and 0.99% and the Cl_Fpred ([1]; CD-1 mouse, S.C., 1 mg/kg) was 0.0036 L/h/kg. The Cmax ([1]; CD-1 mouse, S.C., 1 mg/kg) was 2.221 µg/mL and 3.993 µg/mL, the MRTINF_pred ([1]; CD-1 mouse, S.C., 1 mg/kg) was 20.64 h and 15.82 h and the MRTlast ([1]; CD-1 mouse, S.C., 1 mg/kg) was 20.45 h and 15.69 h. The Tlast ([1]; CD-1 mouse, S.C., 1 mg/kg) was 72 h, the Tmax ([1]; CD-1 mouse, S.C., 1 mg/kg) was 7 h and 24 h and 3 h and the V_F_pred ([1]; CD-1 mouse, S.C., 1 mg/kg) was 0.2 L/kg and 0.15 L/kg and 0.13 L/kg. The t1/2 ([1]; CD-1 mouse, S.C., 1 mg/kg) was 7.06 h and 7.05 h, the Tlast ([1]; Table 15, I.V. 1 mg/kg) was 72 h and the AUC0_24 [1, 3] was 107.856 µg·h/mL and 85.158 µg·h/mL. The AUC last [1, 3] was 127.615 µg·h/mL and 102.411 µg·h/mL, the AUCINF_pred [1, 3] was 128.099 µg·h/mL and 103.033 µg·h/mL and the “AUC_% Extrap_pred” value [1, 3] was 0.39% and 0.38% and 0.6%. The “AUMC_% Extrap_pred” value [1, 3] was 2.24% and 2.36% and 3.79%, the C0 [1, 3] was 8.38 µg/mL and 10.006 µg/mL and the Cmax [1, 3] was 8.23 µg/mL and 9.829 µg/mL. For the same compound, the MRTINF_pred [1, 3] was 13.56 h and 13.74 h, the MRTlast [1, 3] was 13.29 h and 13.3 h and the Vss_pred [1, 3] was 0.106 L/kg and 0.133 L/kg. The Vz_pred [1, 3] was 0.099 L/kg and 0.138 L/kg, the t1/2 [1, 3] was 9.87 h and the MRT inf [1, 4] was 14.6 h. It also gave an MRT last [1, 4] of 14.3 h, an MRT inf ([1]; sc, 1 mg/kg, CD-1 mouse, S.C.) of 16.2 h and an MRT last ([1]; sc, 1 mg/kg, CD-1 mouse, S.C.) of 16.1 h.

`CC[C@H](C)[C@H](NC(=O)[C@H](CC(C)C)NC(=O)[C@H](Cc1c[nH]c2ccccc12)NC(=O)[C@@H]1CSCC(=O)NCCN(C(=O)CCC(=O)NCCOCCOCCC(=O)NCCOCCOCCC(=O)NCCCC[C@H](NC(=O)CCCCCCCCCCCCCCCCCCC(=O)O)C(=O)O)CCNC(=O)CSC[C@H](NC(=O)[C@H](CCCCN)NC(=O)[C@H](CC(=O)O)NC(=O)[C@H](CC(C)C)NC(=O)[C@H](Cc2ccc(O)cc2)NC(=O)[C@@H](NC(=O)[C@H](CO)NC(=O)[C@H](Cc2ccc(O)cc2)NC(=O)[C@H](CC(=O)O)NC(=O)[C@H](CO)NC(=O)[C@@H](NC(=O)[C@H](Cc2ccc(O)cc2)NC(=O)[C@@H](NC(=O)CNC(=O)[C@H](CCC(=O)O)NC(=O)C(C)(C)NC(=O)[C@@H](N)Cc2ccc(O)cc2)[C@@H](C)O)[C@@H](C)O)[C@@H](C)CC)C(=O)N[C@@H](C)C(=O)N[C@@H](C)C(=O)NC(C)(C)C(=O)N[C@@H](CCC(=O)O)C(=O)N[C@@H](Cc2ccccc2)C(=O)N[C@@H](C(C)C)C(=O)N1)C(=O)N[C@@H](C)C(=O)NCC(=O)NCC(=O)N1CCC[C@H]1C(=O)N[C@@H](CO)C(=O)N[C@@H](CO)C(=O)NCC(=O)N[C@@H](C)C(=O)N1CCC[C@H]1C(=O)N1CCC[C@H]1C(=O)N1CCC[C@H]1C(=O)N[C@@H](CO)C(N)=O` [6Y, 27I, C(17-24)-C20L5A, YAibEGT-YTSDY-SIYLD-KXAAAib-EFVXW-LIAGG-PSSGA-PPPS-NH2 (where each X is C) (SEQ ID NO: 59)] (H-Y[Aib]EGTYTSDYSIYLDKCAA[Aib]EFVCWLIAGGPSSGAPPPS-NH2; linker 17-24 via X2) gave an EC50 (human GIPR; [2]) of 0.26 nM.
